Entries after “also recorded” stand apart in the source; their conditions may differ. Blank lines part the entries; values can stand above or below the substance they belong to. No end group written: not given here.
Columns and labels:
[1] = system: full set of five targeted enzymes; thrombin, Factor Xa, and hepsin; experiment: 30-mer tandem linker design: comparison of cleavage efficiencies across enzymes; type: biochemical, human
Description: To generate the most efficient tandem linker, the cleavage efficiencies for each of the targeted enzymes toward the 30-mer library peptides can be compared (FIG. 64).
Replacement of the ADAM17_2 motif with ADAM17_i may also enhance activity toward FAP-alpha and CTSL1, even if ADAM17 activity enhancement is minor, and hepsin susceptibility would be predicted to be reduced.

[2] = cited from earlier work
[3] = system: activated T cells relative to NK cells; conditions: cited from earlier work
Factor Xa = biological target: T1, Factor Xa (Homo sapiens, UniProt P00742); experiment: 30-mer library counter-screening MSP-MS, Factor Xa; type: biochemical
T1 construct: purchased R&D Systems (Bio-techne) 1063-SE-010
Method: (§1) Protease specificity screening was performed using Multiplexed Substrate Profiling by Mass Spectrometry (MSP-MS), the method described in, e.g. O'Donoghue A. J. et al., Nat Methods., 2012; 9(11): 1095-1100. This method employs a physico-chemically diverse peptide library as substrates for proteases, and reactions are monitored over time with mass spectrometric detection of cleaved products. The resulting cleavages are assessed for specific cleavage in the enzyme-treated sample by comparison with results from a no-enzyme control incubation.
(§2) Enzymes were activated and assayed following the manufacturer's recommendations.
Factor Xa was assayed at 4.7 nM enzyme, at 37° C. in the manufacturer recommended buffer: 50 mM TRIS, 10 mM CaCl2, 150 mM NaCl, pH 7.5.
(§3) Counter-screening was performed against the enzymes Thrombin, Factor Xa and Hepsin using this library as well, and for calibration of activity, a positive-control peptide bearing favorable motifs for these enzymes was also designed (ALU30-19).
Catalytic efficiency (kcat/KM) estimations were used to rank the top cleaved substrates in the MSP-MS reaction. Peptides were quantified by mass spectrometric label-free quantitation from the MS1 precursor ion peak areas for each peptide. Enzyme progress curves were modeled from six-time point measurements in GraphPad Prism. […]

Hepsin = biological target: T2, Hepsin (Homo sapiens, UniProt P05981); experiment: 30-mer library counter-screening MSP-MS, Hepsin; type: biochemical
T2 construct: purchased R&D Systems (Bio-techne) 4776-SE
Method: as §1, §2
Hepsin was pre-activated overnight at 37° C. in the manufacturer recommended buffer: 100 mM TRIS, 10 mM CaCl2, 150 mM NaCl, 0.05% Brij-35, pH 8.0. Activity was measured with 2.4 or 24 nM enzyme in the buffer: 50 mM TRIS HCl at pH 7.4.
as §3
(§4) Catalytic efficiency (kcat/KM) estimations were used to rank the top cleaved substrates in the MSP-MS reaction. Peptides were quantified by mass spectrometric label-free quantitation from the MS1 precursor ion peak areas for each peptide. Enzyme progress curves were modeled from six-time point measurements in GraphPad Prism. Data were fitted using non-linear least squares fitting to the first order kinetics equation:
(§5) [formula] where Y=percent product formation or substrate consumption, and t=time. The observed rate is a function of the enzyme concentration [E0], and an observed catalytic efficiency (kcat/KM) in units M^−1s^−1
(§6) Counter-screening with Thrombin, Factor Xa and Hepsin was also performed following the same analysis. The library peptide Alu30-19 was designed to include authentic sites for each enzyme, for comparison of overall cleavage efficiency as well as cleavage site specificity within each motif. The substrate designed for Factor Xa has the motif FNPR|TFGS (SEQ ID NO: 248), derived from the Factor Xa cleavage site in Thrombin. The substrate motif for Thrombin was FPR|, a common tool substrate motif. The substrate motif for hepsin was RKRR|GSRG (SEQ ID NO: 249) from filaggrin.

Thrombin = biological target: T3, Thrombin (Homo sapiens, UniProt P00734); experiment: 30-mer library counter-screening MSP-MS, Thrombin; type: biochemical
T3 construct: purchased R&D Systems (Bio-techne) 2196-SE-200
Method: as §1, §2
Thrombin was activated following the manufacturer's recommended conditions by pre-incubation with the enzyme with thermolysin for 15 min, and then the thermolysin was quenched with 1,10 phenanthroline treatment. Activated thrombin was assayed at 1.2 nM in activation buffer: 50 mM TRIS HCl, 10 mM CaCl2, 150 mM NaCl, 0.05% (w/v) Brij-35, pH 7.5.
as §3, §4, §5, §6

FAPα = biological target: T4, FAPα (Homo sapiens, UniProt Q12884); experiment: 30-mer tandem linker library MSP-MS, FAPα; type: biochemical
T4 construct: purchased R&D Systems (Bio-techne) 930-ADB-010
T4 sequence (Q12884 1-760): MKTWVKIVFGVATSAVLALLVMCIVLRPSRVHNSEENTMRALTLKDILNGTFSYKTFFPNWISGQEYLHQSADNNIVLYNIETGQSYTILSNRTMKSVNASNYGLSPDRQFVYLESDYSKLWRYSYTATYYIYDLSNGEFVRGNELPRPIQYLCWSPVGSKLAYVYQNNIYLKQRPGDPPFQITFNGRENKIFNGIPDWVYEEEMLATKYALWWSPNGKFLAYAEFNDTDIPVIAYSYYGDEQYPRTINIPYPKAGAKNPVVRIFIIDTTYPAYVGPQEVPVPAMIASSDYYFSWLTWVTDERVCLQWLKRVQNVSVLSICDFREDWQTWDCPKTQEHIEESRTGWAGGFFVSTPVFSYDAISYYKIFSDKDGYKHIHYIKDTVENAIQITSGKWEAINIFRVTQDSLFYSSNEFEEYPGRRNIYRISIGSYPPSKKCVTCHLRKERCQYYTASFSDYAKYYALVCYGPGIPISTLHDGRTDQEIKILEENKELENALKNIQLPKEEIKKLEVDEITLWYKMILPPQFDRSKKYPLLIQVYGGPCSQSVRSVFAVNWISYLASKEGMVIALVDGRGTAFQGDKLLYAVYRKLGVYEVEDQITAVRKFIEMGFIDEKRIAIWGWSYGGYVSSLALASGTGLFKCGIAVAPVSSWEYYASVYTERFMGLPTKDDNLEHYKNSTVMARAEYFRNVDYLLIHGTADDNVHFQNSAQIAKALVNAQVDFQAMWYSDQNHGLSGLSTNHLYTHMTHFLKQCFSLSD
Method: as §1, §2
FAPα activity was tested with fluorescence detection using a generic Z-GP-AMC substrate. For FRET assays, the final enzyme concentration was 5 nM and the buffer was 50 mM TRIS HCl, 1 M NaCl, 1 mg/mL BSA, pH 7.5.
(§7) To analyze the catalytic efficiency of candidate tandem linker designs, a tailored library approach using MSP-MS was applied. For the tailored library, a set of nineteen synthetic peptides, 30 amino acids in length (30-mers), were designed to test whether sequence context affects the efficiency of cleavage. Peptides were assayed in a multiplex format together as a substrate library with individual recombinant enzymes, using MSP-MS. For quantitative comparisons, kinetic analysis was performed over a time course, and results are reported either as a catalytic efficiency kcat/KM for well-behaved first-order kinetics, or as observed rates as kobs for more complex kinetic behavior.
as §4, §5

MMP9 = biological target: T5, MMP9 (Homo sapiens, UniProt P14780); experiment: 30-mer tandem linker library MSP-MS, MMP9; type: biochemical
T5 construct: purchased R&D Systems (Bio-techne) 911-MP-010
Method: as §1, §2
MMP9 was activated by incubation with 1 mM p-amino phenyl mercuric acetate (prepared from a stock at 100 mM in DMSO) for 24h at 37° C. in activation buffer: 50 mM TRIS HCl (pH 7.5), 10 mM CaCl2, 150 mM NaCl, 0.05% Brij35. The final enzyme concentration used for fluorescence assays was 2.5 nM.
To analyze the catalytic efficiency of candidate tandem linker designs, a tailored library approach using MSP-MS was applied. […] For quantitative comparisons, kinetic analysis was performed over a time course, and results are reported either as a catalytic efficiency kcat/KM for well-behaved first-order kinetics, or as observed rates as kobs for more complex kinetic behavior. […]

CTSL1 [4] = biological target: T6, CTSL1 (Homo sapiens, UniProt P07711); experiment: In vitro FRET kinetics with CTSL1; type: biochemical
Method: as §2
(§8) For CTSL1, enzyme was activated by pre-incubation in assay buffer (50 mM MES, 5 mM DTT, 1 mM EDTA, pH=6) for 15 min. MSP-MS reactions were then started with the mixing of enzyme and substrate, at final CTSL1 concentration of 0.04 ng/μl (0.77 nM), and peptide substrate concentration at 500 nM.
Additional in vitro kinetic experiments were performed to characterize a new candidate motif for CTSL1 enzyme; the CTSL1_2 motif has the sequence […] (SEQ ID NO: 199). […] Yet, initial experiments with the CTSL1_2 FRET substrate were inconclusive, possibly due to artifacts in the FRET assay; therefore, a new FRET peptide construct was designed with the 9-mer sequence […] (SEQ ID NO: 236).
All of the FRET substrates used in these studies have a methoxycoumarin (Mca) fluorophore and dinitrophenyl-lysyl (Dnp) quencher pair at the N- and C-termini of the sequences, respectively.

Cathepsin K (CTSK) = biological target: T7, Cathepsin K (CTSK) (Homo sapiens, UniProt P43235); experiment: Counter-screening of CTSL1 FRET substrates with Cathepsin K; type: biochemical; conditions: specific activity
T7 sequence (P43235 115-329): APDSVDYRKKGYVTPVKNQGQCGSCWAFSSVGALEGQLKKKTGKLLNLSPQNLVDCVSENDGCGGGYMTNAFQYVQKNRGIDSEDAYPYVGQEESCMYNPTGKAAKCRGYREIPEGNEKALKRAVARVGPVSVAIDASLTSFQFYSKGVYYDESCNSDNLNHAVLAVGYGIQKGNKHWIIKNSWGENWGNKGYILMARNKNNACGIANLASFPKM
Method: Counter-screening of CTSL1_1 and CTSL1_2 was performed with the enzyme Cathepsin K (CTSK). […] For comparison, the specific activity for reference substrates such as Z-LR-AMC and Z-FR-AMC is 15,000-25,000 pmol/min/μg, with the average value indicated by a dashed line in FIG. 47.

CTSL1 [5] = biological target: T6, CTSL1; experiment: 30-mer tandem linker library MSP-MS, CTSL1; type: biochemical
Method: as §1, §2, §8
This hypothesis was tested in the context of the hybrid linker design experiment. Shown in FIG. 46 are the results of cleavage of two matched 30-mer peptides with the following sequences:
as §7, §4, §5

[6] = matched 30-mer peptides SEQ ID NO: 207 (CTSL1_1) and 219 (CTSL1_2)

T2 sequence (P05981 163-417 limits assumed): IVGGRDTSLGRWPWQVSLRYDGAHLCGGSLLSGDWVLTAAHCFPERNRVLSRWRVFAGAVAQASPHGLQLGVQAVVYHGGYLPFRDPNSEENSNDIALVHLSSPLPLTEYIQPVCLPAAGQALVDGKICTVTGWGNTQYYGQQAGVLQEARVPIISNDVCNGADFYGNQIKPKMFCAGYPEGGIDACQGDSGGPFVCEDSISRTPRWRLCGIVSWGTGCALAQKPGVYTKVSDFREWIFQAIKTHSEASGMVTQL
T2 sequence (P05981 1-162 partner limits assumed): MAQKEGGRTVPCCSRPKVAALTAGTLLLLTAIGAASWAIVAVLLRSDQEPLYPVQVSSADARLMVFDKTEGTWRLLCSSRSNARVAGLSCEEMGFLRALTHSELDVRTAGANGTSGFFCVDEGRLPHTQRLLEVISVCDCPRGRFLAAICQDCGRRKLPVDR
T6 sequence (P07711 114-333): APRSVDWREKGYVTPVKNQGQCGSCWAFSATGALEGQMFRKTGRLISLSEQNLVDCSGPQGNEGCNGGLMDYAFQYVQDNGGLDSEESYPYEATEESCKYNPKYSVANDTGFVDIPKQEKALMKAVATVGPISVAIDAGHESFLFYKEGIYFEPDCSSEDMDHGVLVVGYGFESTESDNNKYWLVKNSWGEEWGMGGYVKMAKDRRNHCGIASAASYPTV
T1 sequence (P00742 235-488 limits assumed): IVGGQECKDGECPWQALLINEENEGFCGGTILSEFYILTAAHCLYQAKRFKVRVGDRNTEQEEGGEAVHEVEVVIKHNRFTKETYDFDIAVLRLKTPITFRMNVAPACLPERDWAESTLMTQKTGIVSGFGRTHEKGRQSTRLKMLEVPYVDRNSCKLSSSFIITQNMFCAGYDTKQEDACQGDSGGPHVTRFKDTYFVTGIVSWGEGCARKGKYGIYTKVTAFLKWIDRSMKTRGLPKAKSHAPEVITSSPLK
T1 sequence (P00742 41-179 partner limits assumed): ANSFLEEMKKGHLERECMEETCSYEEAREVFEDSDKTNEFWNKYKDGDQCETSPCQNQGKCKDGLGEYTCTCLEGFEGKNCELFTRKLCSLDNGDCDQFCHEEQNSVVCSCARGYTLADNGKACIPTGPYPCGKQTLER
T5 sequence (P14780 107-707 limits assumed): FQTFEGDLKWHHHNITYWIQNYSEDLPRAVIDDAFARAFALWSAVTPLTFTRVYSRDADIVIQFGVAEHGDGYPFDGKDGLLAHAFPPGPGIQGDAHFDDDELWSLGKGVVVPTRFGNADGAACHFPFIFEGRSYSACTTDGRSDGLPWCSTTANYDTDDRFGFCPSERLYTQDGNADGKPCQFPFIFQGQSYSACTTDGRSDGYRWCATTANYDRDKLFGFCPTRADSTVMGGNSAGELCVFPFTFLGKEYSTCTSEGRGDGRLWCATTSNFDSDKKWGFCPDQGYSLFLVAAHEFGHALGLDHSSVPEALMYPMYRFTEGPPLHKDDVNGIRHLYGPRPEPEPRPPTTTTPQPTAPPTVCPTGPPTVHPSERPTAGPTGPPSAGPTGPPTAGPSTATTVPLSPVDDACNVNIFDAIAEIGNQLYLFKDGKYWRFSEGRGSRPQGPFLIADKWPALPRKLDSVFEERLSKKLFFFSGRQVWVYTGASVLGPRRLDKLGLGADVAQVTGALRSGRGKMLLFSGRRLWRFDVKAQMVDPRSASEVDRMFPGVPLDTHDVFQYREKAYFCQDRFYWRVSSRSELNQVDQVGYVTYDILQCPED

Substance: SGPLAQKLKSSGPAGLYAQALFKSSFPGSK [Alu30-16]
- Activity toward the full set of five targeted enzymes [1]: generally high activity
- Susceptibility to thrombin, Factor Xa, and hepsin [1]: lowest susceptibility

Substance: Bay 50-4798: IL-2 variant IL2/N88R, clinically tested as a low-toxicity version of IL-2
- Levels of CD4+CD25+ T cells in clinical trials ([2]; cancer patients and HIV patients): increased the levels of CD4+CD25+ T cells
- Safety and tolerability in clinical trials ([2]; human, in vivo): considerably safer and more tolerable than aldesleukin
- Selectivity of stimulated proliferation [3]: selectively stimulate the proliferation of activated T cells relative to NK cells

Substance: ALFFSSPP (also: FRET fluorophore and quencher) [CTSL1_2]
- Cleavage of 8-mer FRET substrate by CTSL1 (CTSL1 [4]; 8-mer FRET peptide, Mca/Dnp pair): not cleaved
- Cleavage of 9-mer FRET substrate by CTSL1 (CTSL1 [4]; 9-mer sequence ALFFSSPPS (SEQ ID NO: 236)): comparable catalytic efficiency to the CTSL1_1 motif; also recorded: cleaved as a 9-mer FRET peptide
- Cleavage by CTSK, lower level than the CTSL1_1 substrate (Cathepsin K (CTSK)): 15 ×
- Relative efficiency of 30-mer peptide cleavage by CTSL1 (CTSL1 [5]): rapidly cleaved
- +1 site product formation by CTSL1 (CTSL1 [5]; [6]): more rapidly formed
- −1 site product formation by CTSL1 (CTSL1 [5]; [6]): did not
- Relative efficiency of cleavage by hepsin (Hepsin): cleaved at a much slower rate than CTSL1_1

The remaining lines, values ahead:

- Time to complete degradation by Factor Xa (Factor Xa): < 5 min
- Time to cleavage at all three motifs by hepsin (Hepsin): ≤ 15 min
- Apparent catalytic efficiency, hepsin (Hepsin; order of magnitude): ~10^5 M^−1s^−1
Substance: SGGFPRSGGSFNPRTFGSKRKRRGSRGGGG [Alu30-19, reference compound]

- Relative efficiency of 30-mer peptide cleavage by thrombin (Thrombin): less susceptible to thrombin
- Relative efficiency of 30-mer peptide degradation by FAPα (FAPα): efficiently cleaved
- Relative efficiency of 30-mer substrate degradation/cleavage by MMP9 (MMP9): more efficient than the Alu30-1 peptide
Substance: RGSGGGPAGLYAQGSGGGPAGLYAQGGSGK [Alu30-2]

- Relative efficiency of 30-mer peptide cleavage by Factor Xa (Factor Xa): significant cleavage
Substance: KGGALFKSSFPGGPAGIGPLAQKLKSSGGS [Alu30-5]
